We go through 15 sequences from the supplement of paper PMC9170038.

This series deals with MS2 coat protein. Nature of the series: apparent KD of MS2 coat protein; designed switch direction (-1 OFF switch, 1 ON switch): -1; higher = weaker reporter binding. An outline of the steps: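 Transcription of designed RNA switches on Illumina chips was done by stalled E. coli RNA polymerase. SNAP-549-labelled MS2 coat protein was then titrated in doubling steps from 0.7 or 1.5 nM to 3 µM, with steps of 0.8–1.5 h at the lowest and 10–20 min at the highest concentration. The per-design median over clusters of curve-fitted normalised fluorescence is reported as apparent KD.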

Where [1] appears, read: Eterna round: R95, input ligand: microRNA oligo, concentration not stated.

With “UUUUAACAUGAGGAUCACCCAUGUGAGGAUAUCGAAAUUUAUAUUAAUAUUAUUAAAUCGAGAAGGCACAUUUU [JMF 36] (puzzle: Exclusion 1)”, the “apparent KD of MS2 coat protein” value under setting [1] worked out at 104 nM.

Turning to “UUUUAACAUGAGGAUCACCCAUGUGAGGAUAUCGAAAUUUAUAUUAAUAUUAUUUUUACGAGAAGGCACAUUUU [JMF 50] (puzzle: Exclusion 1)”, the “apparent KD of MS2 coat protein” value under setting [1] turned out to be 99.2 nM.

For “UUUUAACAUGAGGAUCACCCAUGUGAGGAUAUCGAAAUUUAUAUUAAUAUUUAUUAUUCGAGAAGGCACAUUUU [JMF 61] (puzzle: Exclusion 1)”, the “apparent KD of MS2 coat protein” value under setting [1] worked out at 119 nM.

Consider “UUUUAACAUGAGGAUCACCCAUGUGAGGAUAUCGAAAUUUAUAUUAAUAUUUUUAUAACGAGAAGGCACAUUUU [JMF 71] (puzzle: Exclusion 1)”, for which, under setting [1], the “apparent KD of MS2 coat protein” value was determined as 64.8 nM.

For the sequence “UUUUAACAUGAGGAUCACCCAUGUGAGGAUAUCGAAAUUUAUAUUUAUAUUAAUUAAACGAGAAGGCACAUUUU [JMF 83] (puzzle: Exclusion 1)”, under setting [1], the “apparent KD of MS2 coat protein” value worked out at 74 nM.

On to “UUUUAACAUGAGGAUCACCCAUGUGAGGAUAUCGAUUUUUUUAUUAAUAUUAAUAAAACGAGAAGGCACAUUUU [JMF 19] (puzzle: Exclusion 1)”, for which the “apparent KD of MS2 coat protein” value under setting [1] amounted to 73.5 nM.

Consider “UUUUAACAUGAGGAUCACCCAUGUGAGGAUAUCGUUUUUUUUUUUUUUUUUUUUUUUUCGAGAAGGCACAUUUU [My solution] (puzzle: Exclusion 1)”, for which the “apparent KD of MS2 coat protein” value reads like this: (Eterna round: R95, input ligand: FMN 200 uM) 127 nM; under setting [1], 84 nM; (Eterna round: R95, input ligand: none) 14 nM.

In the case of “UUUUACAAGCUAAGAUCCUACAUGAGGAUCACCCAUGUGGUCCGGUGACGUGAGUCACCGGACUUAGCUCGUCUUGA [salish99_S_TOV1_R5_085] (Eterna round: R97, puzzle: Sensor, turn-off variant 1)”, the “apparent KD of MS2 coat protein” value was found to be 38.9 nM (input ligand: FMN 200 uM) and 40.4 nM (input ligand: none).

On to “UUUUACCGAGGAUAUACAUUUUUUUUAUUAUCCUCAUUAUUACAUGAGGAUCACCCAUGUAGAAGGCGGAUUUU [My Design] (puzzle: Exclusion 2)”, for which, under setting [1], the “apparent KD of MS2 coat protein” value was 56.9 nM.

For “UUUUAGCAAGCGAGAUCCCACAUGAGGAUCACCCAUGUGCAUCCAGAAUUACUUUUUGCAUAAGCUCGUCUUAUAUA [JR_STOV1_v2_Sub080] (Eterna round: R97, puzzle: Sensor, turn-off variant 1)”, the “apparent KD of MS2 coat protein” value (input ligand: FMN 200 uM) was determined as 58.8 nM and the “apparent KD of MS2 coat protein” value (input ligand: none) is 64.5 nM.

For the sequence “UUUUCACAUGAGGAUCACCCAUGUGAGGAUAUGGAUUCGCUGGCCGUAGCCAGUGGAUCCAGAAGGCGCAUGAU [JL-ex1-4.06] (Eterna round: R97, puzzle: Exclusion 1)”, the “apparent KD of MS2 coat protein” value by setting is: (input ligand: FMN 200 uM) 36 nM; (input ligand: none) 32.8 nM.

As to “UUUUCCAGAGGAUAUGCGAAUAAAUAAAACUUUUUUUUUUAACAUGAGGAUCACCCAUGUAGAAGGCUGCUUUU [Ex2 #27] (Eterna round: R97, puzzle: Exclusion 2)”, the “apparent KD of MS2 coat protein” value amounted to 27.1 nM (input ligand: FMN 200 uM) and 30.1 nM (input ligand: none).

With “UUUUGGCAAGCGAGAUCCUACAUGAGGAUCACCCAUGUUGACCAUGGUUUCCAUGGUCUUUUUGCUCGUCUUGUGUG [jl TITIN mod 3] (Eterna round: R97, puzzle: Sensor, turn-off variant 1)”, the “apparent KD of MS2 coat protein” value is, setting by setting: (input ligand: FMN 200 uM) 21.1 nM; (input ligand: none) 23.1 nM.

“UUUUUACAUGAGGAUCACCCAUGUCAGGAUAUGCUUAUAUUUUAUUAUUUUAUUUUUUGCAGAAGGGACUAUUA [My solution] (Eterna round: R96, puzzle: Exclusion 1)”: the “apparent KD of MS2 coat protein” value was 130 nM (input ligand: FMN 200 uM); 80.4 nM (input ligand: microRNA oligo, concentration not stated); 118 nM (input ligand: none).

On to “UUUUUACAUGAGGAUCACCCAUGUCAGGAUAUGCUUAUAUUUUAUUAUUUUAUUUUUUGCAGAAGGGACUAUUA [My solution] (puzzle: Exclusion 1)”, for which the “apparent KD of MS2 coat protein” value under setting [1] turned out to be 80 nM.
